Test results taken from PMC9505737.

Key:
[1] = system: Immunoglobulin E (IgE), human myeloma (human); test: cited; settings: 10 mM Tris-HCl pH 9.0, no added salt in CE-LIF/NECEEM; temperature not stated; cited from earlier work
[2] = system: Immunoglobulin E (IgE), human myeloma (human); test: NECEEM (CE-LIF); settings: 25 nM DNA and 25 nM IgE, 10 mM Tris-HCl pH 9.0, no added salt in CE-LIF/NECEEM, temperature not stated

GACTACCCGGGTATCTAATCCTGAAACATAGCATATTTACTTATGTCGCCTTGCCGGTTCTGCTGCCGCCCGTAGG [FITC-IgE-Apt (published IgE aptamer)]
Kd [1]: 23 nM

GACTACCCGGGTATCTAATCCGCGTATGGTCATGGATGTGCATACACCCCGCCTATCAGAACTGCTGCCGCCCGTAGG [S1]
Kd [2]: 0.83 nM

GACTACCCGGGTATCTAATCCGACCATTTTTCGTCTCCTTTGTACGAGCAGTGTGCTCGACCTGCCGCCCGTAGG [S2]
Kd ([2]; alternative from both peaks, not adopted): 34.6 nM | Kd ([2]; alternative from sharp peak, not adopted): 28.4 nM | Kd ([2]; from broad peak (value adopted by authors)): 1.55 nM
